Data published in patent publication US20210363224A1 (CONSEJO SUPERIOR DE INVESTIGACIONES CIENT FICAS, published 2021).

Biological target: T1, Recombinant human IL13 (PeproTech) (human, UniProt P35225 35-146, limits assumed)
T1 construct: Bought reagent; also called interleukin 13
Assay: SPR, BIAcore 3000, IL-13 amine-coupled to CM5 sensor chip (7700 RU), peptide as analyte
Experimental: Binding of D1 peptide to IL-13 was monitored by surface plasmon resonance on a BIAcore 3000 instrument (BIAcore Inc, Switzerland). IL-13 was covalently amino coupled to a CM-5 sensor chip. An immobilization level of 7700 RU was obtained. A nonderivatized flow cell was used as a control. The interaction between D1 peptide and the immobilized IL13 was determined by changes in the RU at different D1 concentrations.
A direct quantitative analytical method as Biacore was used to determine the affinity of the D1 peptide binding to IL-13 (FIG. 3C). Some limitations in the quantitative adjustment to the established models of the Biacore instrument caused a difficult interpretation of the results and impede an accurate determination of the affinity.

T1 sequence (P35225 35-146 limits assumed): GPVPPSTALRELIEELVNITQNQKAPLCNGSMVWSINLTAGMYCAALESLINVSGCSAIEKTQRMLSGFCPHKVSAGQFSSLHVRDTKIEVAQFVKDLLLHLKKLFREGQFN

B1: IL13Rα2D1 peptide (GSETWKTIITKN) (peptide)
peptide: GSETWKTIITKN
notes: Made by solid phase synthesis; also called peptide IL13Rα2 D1; L-version
B1 was tested, and the Kd was roughly 100 µM.
